From paper PMC11137118 (2024)

What was measured:
[1] = biological target: all variants (mouse) of IL-22-ScFv; assay: SPR
[2] = biological target: hIL-22-ScFv (human IL-22 fused to a pancreas/liver targeting single chain variable fragment, linker (G4S)1) (human, UniProt Q9GZX6); assay: SPR

B1: IL-22RA1 receptor (receptor)
chain: HAPEDPSDLLQHVKFQSSNFENILTWDSGPEGTPDTVYSIEYKTYGERDWVAKKGCQRITRKSCNLTVETGNLTELYYARVTAVSAGGRSATKMTDRFSSLQHTTLKPPDVTCISKVRSIQMIVHPTPTPIRAGDGHRLTLEDIFHDLFYHLELQVNRTYQMHLGGKQREYEFFGLTPDTEFLGTIMICVPTWAKESAPYMCRVKTLPDRTWTYSFSGAFLFSMGFLVAVLCYLSYRYVTKPPAPPNSLNVQRVLTFQPLRFIQEHVLIPVFDLSGPSSLAQPVQYSQIRVSGPREPAGAPQRHSLSEITYLGQPDISILQPSNVPPPQILSPLSYAPNAAPEVGPPSYAPQVTPEAQFPFYAPQAISKVQPSSYAPQATPDSWPPSYGVCMEGSGKDSPTGTLSSPKHLRPKGQLQKEPPAGSCMLGGLSLQEVTSLAMEESQEAKSLHQPLGICTDRTSDPNVLHSGEEGTPQYLKGQLPLLSSVQIEGHPMSLPLQPPSRPCSPSDQGPSPWGLLESLVCPKDEAKSPAPETSDLEQPTELDSLFRGLALTVQWES
In the case of B1, the Kd [1] is reported as 2.82 nM, the koff [1] is reported as 0.000872 s⁻¹ and the Kd [2] is reported as 3.45 nM. The koff [2] was 0.000781 s⁻¹.
